The values that follow come from article PMC10936676, “ATG9B is a tissue-specific homotrimeric lipid scramblase that can compensate for ATG9A” (Autophagy, 2023).

The data set concerns the molecule itself. The experiment in a line: cryo-EM structure; single-particle cryo-EM of purified ATG9B in LMNG-CHS micelles; 20 mM Tris-HCl, 200 mM NaCl, pH 8.5; reconstructions with C3 and without symmetry.

B1: 3×FLAG-6×His-TEV-ATG9B (full-length human ATG9B), purified from Expi293 cells (natural protein, UniProt Q674R7-1 1-924, looked up)
chain: MVSRMGWGGRRRRLGRWGDLGPGSVPLLPMPLPPPPPPSCRGPGGGRISIFSLSPAPHTRSSPSSFSPPTAGPPCSVLQGTGASQSCHSALPIPATPPTQAQPAMTPASASPSWGSHSTPPLAPATPTPSQQCPQDSPGLRVGPLIPEQDYERLEDCDPEGSQDSPIHGEEQQPLLHVPEGLRGSWHHIQNLDSFFTKIYSYHQRNGFACILLEDVFQLGQFIFIVTFTTFLLRCVDYNVLFANQPSNHTRPGPFHSKVTLSDAILPSAQCAERIRSSPLLVLLLVLAAGFWLVQLLRSVCNLFSYWDIQVFYREALHIPPEELSSVPWAEVQSRLLALQRSGGLCVQPRPLTELDIHHRILRYTNYQVALANKGLLPARCPLPWGGSAAFLSRGLALNVDLLLFRGPFSLFRGGWELPHAYKRSDQRGALAARWGRTVLLLAALNLALSPLVLAWQVLHVFYSHVELLRREPGALGARGWSRLARLQLRHFNELPHELRARLARAYRPAAAFLRTAAPPAPLRTLLARQLVFFAGALFAALLVLTVYDEDVLAVEHVLTAMTALGVTATVARSFIPEEQCQGRAPQLLLQTALAHMHYLPEEPGPGGRDRAYRQMAQLLQYRAVSLLEELLSPLLTPLFLLFWFRPRALEIIDFFHHFTVDVAGVGDICSFALMDVKRHGHPQWLSAGQTEASLSQRAEDGKTELSLMRFSLAHPLWRPPGHSSKFLGHLWGRVQQDAAAWGATSARGPSTPGVLSNCTSPLPEAFLANLFVHPLLPPRDLSPTAPCPAAATASLLASISRIAQDPSSVSPGGTGGQKLAQLPELASAEMSLHVIYLHQLHQQQQQQEPWGEAAASILSRPCSSPSQPPSPDEEKPSWSSDGSSPASSPRQQWGTQKARNLFPGGFQVTTDTQKEPDRASCTD
notes: ATG9B, human, canonical isoform 1 (Q674R7-1), full length; residues 191-674 visible in the cryo-EM map; A TEV site lies between the 6×His tag and ATG9B; no cleavage is described; Eluted from the anti-FLAG resin with 3×FLAG peptide; In LMNG-CHS micelles; also called ATG9B homotrimer; pcDNA3.1-3×FLAG-6×His-TEV-ATG9B; source: Expi293, transiently transfected, extracted into detergent micelles, …
Regarding B1, the “stoichiometry N” value came to 3.

By stoichiometry N is commonly meant the number of molecules, sites or subunits per partner or assembly.
